Data taken from the supplement of paper PMC12042874.
± gives the uncertainty stated by the source.

assay: amyloid nucleation score (Sup35N fusion, yeast selection) (log enrichment); library NNK1; higher = more nucleation; inactive = no reads after selection
Method in brief: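 The nucleation score, computed with DiMSum, is the log enrichment of output over input reads, centred on the mode score of non-aggregating sequences. Sequences with under 100 input reads were dropped. Reads were generated by Illumina sequencing of plasmid inserts from psi-negative yeast with Sup35N fused to peptides of 20 random codons, induced with 100 μM copper sulfate for 24 hours and grown 7 days at 30°C on medium lacking adenine and uracil.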

Substance | amyloid nucleation score
VYRDLVDAYVTDYMCWGAPG | inactive
TVLVYRGFTEGCSHFSWPSN | 0.302 ± 0.8
ENKHVGICSGVQFVAFETCY | inactive
GAFEDEVVLLTHTL | -0.447 ± 1.1
MMAFDRRCLGFPMNVGYD | 1.07 ± 0.46
WMNFWHLFSVFLLFSAICWF | -0.006 ± 0.61
NHHLRPEMQEVCHL | 0.482 ± 0.67
SIMNISVAYCGSM | 3.67 ± 0.14
KLLNRTMRTMVSVSRVM | 0.738 ± 0.72
KWLPMKMKLWFDNSYGGQWF | -0.265 ± 1.2
GLRKYVKPVYSMCVFFLKWA | 1.02 ± 0.58
IFLIMKNRTSILRPTGFLVS | -0.402 ± 0.49
NTTATLMGHTQPIYSIYSVF | 1.11 ± 0.94
GRLVVGIREGIIS | 0.058 ± 0.35
LMFLGWSNRKMTSHSIMTVL | 0.293 ± 1
SRSRRANYGLCDIRYYNSFE | 0.862 ± 0.43
RRRCYVVSCCLVALACLACF | 0.412 ± 0.8
RLAVLEELMVRICIVIRNFW | -0.328 ± 0.69
PFSYLMDLTIYVGKSLQSNE | 0.119 ± 0.35
LSDLDIRKQLVYMRSIRVGT | -0.339 ± 0.94
SGYSLASVVILLKAVYCLGW | 0.627 ± 0.72

Substance | amyloid nucleation score
SRTYPVDMFPMSLKLSINVL | -0.125 ± 0.79
RALCLWTCKSYMFRN | -0.13 ± 1.1
AKMRMNNSFFFTVNWVLMNW | -0.461 ± 0.4
GTKNLCDYIWPGPPGSVVRN | -0.159 ± 0.56
DGSVYTPVIVY | 0.207 ± 0.29
SRTVFGCEDIRERRWVFWEI | 0.647 ± 0.69
VYNLFVEVVPILKNRLWFNY | 4.44 ± 0.094
HLRKVGYSIYLFSR | 3.83 ± 0.057
RDCFIRGKWCTCWHWCEGGE | 1.34 ± 0.27
HVRSWI | 1.76 ± 0.76
QMSKPARTLKSVRGPLDLRI | -0.389 ± 0.61
GTTSVSAINGR | -0.545 ± 0.8
SKEESPMTFVWILGGHSELS | -0.448 ± 0.32
CTEKMIFTDLHRLRVVYKYT | -0.59 ± 1.6
ISYVSVS | 0.073 ± 0.41
RDAVFGPAGVLQI | -0.122 ± 1.6
CCIFIDFTVIALGRTLVVRH | -1.17 ± 1.2
NSINFFNMFVYWL | 6.26 ± 0.056
QLVTVADLLTKFPGILSWSG | inactive
RGHAFLFVLYTFQLKAYAS | -0.033 ± 0.3
KSSYLFMTSWPYWVRGMSYA | 0.01 ± 0.46

Substance | amyloid nucleation score
LRWMESLRLNARSFKDTLLC | -0.33 ± 1.7
MQVVVYKYLTMYQR | 1.29 ± 0.76
CGAYRMWQYKASRGTHWPYT | -0.182 ± 0.6
SLSRMVGCTTVF | inactive
KRLHRGCWEVGSRGSLKLVN | -1.14 ± 1.6
MCASASTSKMLVWVWTPYFG | 2.14 ± 0.13
DIRCGLDGNWVSSFVRQQGS | inactive
LLKWLVDAW | 0.493 ± 0.25
KFIIAGNLNQKSTSWV | 2.23 ± 0.086
MNCLTSRILNVLIGSGCN | 3.33 ± 0.076
IFLNKRSTSAWFSMLLLFLS | 1.4 ± 0.14
CFFPIRDQQCTRSYHFSDHM | 0.727 ± 0.63
TCVCQFIWG | -0.086 ± 0.79
LLDRRVGKLGLDCMLLDLCQ | 0.752 ± 0.42
GLIQYPGFIASMYPSDNTSC | 0.135 ± 0.41
TCSGA | -0.073 ± 0.39
QYRHRGRQHLMGGNAQCPYV | 0.477 ± 0.66
VNKRISGTLHDTYEGDLCL | -0.418 ± 0.75
LWHEI | 0.427 ± 0.51
FGSRVVGRCVETSHSILFVL | 0.58 ± 1.1
FHWVGVSYQLKMRRVKPKGV | -0.441 ± 1.1

Substance | amyloid nucleation score
LSVSFDVDVMVMIQVNCAIH | 0.105 ± 0.39
RAKLFHWLNWR | 0.282 ± 0.67
LVAYVTRRFVLCM | -1.42 ± 1.8
AVLKGYRWACMVFLSGFGRC | 0.243 ± 0.41
NLTHARGVSSVQRGVMSRTG | -0.747 ± 0.6
MRIRAKSALSVSLECDLQFL | 0.655 ± 0.3
NFRNLSYCFQFPMFVARRLK | 1.06 ± 0.67
FLQRIKNHAVSAGWIYSLSK | 0.106 ± 0.43
LGPVLFKLLRETCAQSYKVM | -0.005 ± 0.67
NKRVHWLSGRLWIWYHWWVI | -1.5 ± 1.7
SYVKDNISVSGADILTGAIC | -0.367 ± 0.48
SGVVTCVVFL | 5.38 ± 0.066
KNVSLRYILAYCRHYKLTHG | 0.19 ± 1.2
DWSSRVFPGSLGTKAGSHA | -1.58 ± 1.4
LDVCCEYPSKSSVMEWQVWL | 1.02 ± 0.54
FLCPRSCHGPNTFDFIMWSF | 0.198 ± 0.66
SVSYVELLGAFIKGLGIIYF | -0.999 ± 0.63
CKDCYLITGVVINYPSRPLW | 5.985 ± 0.049
RLVIRSGTNAGMVGRSWGGC | -0.151 ± 0.3
FESRDVRSLWWDWSYSNKTV | 0.191 ± 0.28
